Target: T1, FLAG-tagged GSK3β (UniProt P49841 1-420)
T1 construct: glycogen synthase kinase-3β, expressed from a plasmid; also called FLAG-GSK3β; source: HEK-293, co-transfected, in lysate
Experiment: co-IP; HEK-293 co-transfected with HA-TGase 2 and FLAG-GSK3β at increasing TGase 2:GSK3β plasmid ratios; TGase 2-GSK3β and GSK3β-β-catenin association followed
Conditions: partners not purified

T1 sequence (P49841 whole entry): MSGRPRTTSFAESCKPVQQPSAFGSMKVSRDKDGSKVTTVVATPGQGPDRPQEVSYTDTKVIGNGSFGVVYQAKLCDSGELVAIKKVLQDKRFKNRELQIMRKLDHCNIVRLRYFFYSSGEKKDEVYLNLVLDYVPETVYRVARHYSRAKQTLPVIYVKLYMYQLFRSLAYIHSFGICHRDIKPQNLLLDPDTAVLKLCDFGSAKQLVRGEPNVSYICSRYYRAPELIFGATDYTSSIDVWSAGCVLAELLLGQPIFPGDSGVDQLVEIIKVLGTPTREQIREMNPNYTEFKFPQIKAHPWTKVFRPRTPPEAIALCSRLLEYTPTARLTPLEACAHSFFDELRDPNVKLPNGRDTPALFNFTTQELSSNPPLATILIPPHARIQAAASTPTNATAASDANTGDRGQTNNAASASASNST

B1: HA-tagged wild-type TGase 2 (enzyme, UniProt P21980 1-687, looked up)
chain: MAEELVLERCDLELETNGRDHHTADLCREKLVVRRGQPFWLTLHFEGRNYEASVDSLTFSVVTGPAPSQEAGTKARFPLRDAVEEGDWTATVVDQQDCTLSLQLTTPANAPIGLYRLSLEASTGYQGSSFVLGHFILLFNAWCPADAVYLDSEEERQEYVLTQQGFIYQGSAKFIKNIPWNFGQFEDGILDICLILLDVNPKFLKNAGRDCSRRSSPVYVGRVVSGMVNCNDDQGVLLGRWDNNYGDGVSPMSWIGSVDILRRWKNHGCQRVKYGQCWVFAAVACTVLRCLGIPTRVVTNYNSAHDQNSNLLIEYFRNEFGEIQGDKSEMIWNFHCWVESWMTRPDLQPGYEGWQALDPTPQEKSEGTYCCGPVPVRAIKEGDLSTKYDAPFVFAEVNADVVDWIQQDDGSVHKSINRSLIVGLKISTKSVGRDEREDITHTYKYPEGSSEEREAFTRANHLNKLAEKEETGMAMRIRVGQSMNMGSDFDVFAHITNNTAEEYVCRLLLCARTVSYNGILGPECGTKYLLNLNLEPFSEKSVPLCILYEKYRDCLTESNLIKVRALLVEPVINSYLLAERDLYLENPEIKIRILGEPKQKRKLVAEVSLQNPLPVALEGCTFTVEGAGLTEEQKTVEIPDPVEAGEEVKVRMDLLPLHMGLHKLVVNFESDKLKAVKGFRNVIIGPA
notes: transglutaminase 2, wild type, expressed from a TGM2 plasmid; also called HA-tagged wild-type TGM2; HA-tagged TGase 2; source: HEK-293, co-transfected, in lysate
- percent decrease of the interaction with GSK3β (of β-catenin, by the legend) at TGase 2:GSK3β plasmid ratio 1:1: 52%
- percent decrease of the interaction with GSK3β (of β-catenin, by the legend) at TGase 2:GSK3β plasmid ratio 1:2: 45%

Source: publication PMC12876850 (Cell Death & Disease, 2026)
